Here are results for one molecule from PMC11817110.

For the experiment, the target named is T1, recombinant human LAIR1 (leukocyte-associated immunoglobulin-like receptor 1) (human), Q6GTX8.
T1 chain: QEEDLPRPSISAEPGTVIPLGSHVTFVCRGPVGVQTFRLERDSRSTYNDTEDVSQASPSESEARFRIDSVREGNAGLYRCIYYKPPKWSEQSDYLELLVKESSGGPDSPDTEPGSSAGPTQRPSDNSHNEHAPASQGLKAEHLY

B1: polymerized type I collagen (protein)
chain 1: not shown
chain 2: GPMGLMGPRGPPGAVGAPGPQGFQGPAGEPGEPGQTGPAGARGPPGPPGKAGEDGHPGKPGRPGERGVVGPQGARGFPGTPGLPGFKGIRGHNGLDGLKGQPGAPGVKGEPGAPGENGTPGQTGARGLPGERGRVGAPGPAGARGNDGSVGPVGPAGPIGSAGPPGFPGAPGPKGELGPVGNPGPAGPAGPRGEVGLPGVSGPVGPPGNPGANGLPGAKGAAGLPGVAGAPGLPGPRGIPGPAGAAGATGARGLVGEPGPAGSKGESGNKGEPGAAGPQGPPGPSGEEGKRGPNGEVGSAGPPGPPGLRGNPGSRGLPGADGRAGVMGPPGSRGPTGPAGVRGPNGDSGRPGEPGLMGPRGFPGSPGNVGPAGKEGPAGLPGIDGRPGPIGPAGARGEPGNIGFPGPKGPTGDPGKNGEKGHAGLAGARGAPGPDGNNGAQGPPGPQGVQGGKGEQGPAGPPGFQGLPGPAGTAGEVGKPGERGIPGEFGLPGPAGPRGERGPPGESGAAGPAGPIGSRGPSGPPGPDGNKGEPGVLGAPGTAGPSGPSGLPGERGAAGIPGGKGEKGETGLRGDVGSPGRDGARGAPGAVGAPGPAGANGDRGEAGPAGPAGPAGPRGSPGERGEVGPAGPNGFAGPAGAAGQPGAKGERGTKGPKGENGPVGPTGPVGAAGPAGPNGPPGPAGSRGDGGPPGATGFPGAAGRIGPPGPSGISGPPGPPGPAGKEGLRGPRGDQGPVGRTGETGASGPPGFAGEKGPSGEPGTAGPPGTPGPQGILGAPGFLGLPGSRGERGLPGVAGSVGEPGPLGIAGPPGARGPPGAVGNPGVNGAPGEAGRDGNPGSDGPPGRDGQAGHKGERGYPGNPGPAGAAGAPGPQGAVGPAGKHGNRGEPGPAGSVGPAGAVGPRGPSGPQGIRGEKGEPGDKGPRGLPGLKGHNGLQGLPGLAGHHGDQGAPGPVGPAGPRGPAGPSGPAGKDGRTGQPGAVGPAGIRGSQGSQGPAGPPGPPGPPGPPGPS
modifications: here or on the partner: covalent bond between the protein and the PVP moiety; γ-irradiated | covalent bond between the protein and the PVP moiety; γ-irradiated
As for B1, the percentage of CD14+/CD16+/CD163+/IL-10-expressing cells (M2 phenotype) in M1 cultures without vs. with 10% PTIC, flow cytometry was found to be 19.8% and the percentage of CD16+/CD36+/CD86+/IL-1β-expressing cells (M1 phenotype) in M1 cultures without vs. with 10% PTIC, flow cytometry amounted to 1.5%.
